Source: patent CN114349855A (BAISIS MEDICAL DIAGNOSIS SCIENCE AND TECH BEIJING LIMITED …, dated 2022)

Tests used:
Assay in all cases: ELISA, S protein coated at 2 μg/mL
新型冠状病毒Alpha Spike蛋白 = biological target: T1, 新型冠状病毒Alpha Spike蛋白 (新型冠状病毒 (SARS-CoV-2) Alpha突变株, UniProt P0DTC2 16-1213)
T1 construct: also called Alpha的S蛋白

新型冠状病毒Beta Spike蛋白 = biological target: T2, 新型冠状病毒Beta Spike蛋白 (新型冠状病毒 (SARS-CoV-2) Beta突变株, UniProt P0DTC2 16-1213)
T2 construct: also called Beta的S蛋白

新型冠状病毒Gamma Spike蛋白 = biological target: T3, 新型冠状病毒Gamma Spike蛋白 (新型冠状病毒 (SARS-CoV-2) Gamma突变株, UniProt P0DTC2 16-1213)
T3 construct: also called Gamma的S蛋白

Measured: binding result

B1: 抗体 克隆号9A5F6 23F1 (antibody, V domains shown)
VH: QVQLVESGGGVVQPGRSLRLSCAASGFTFSSYAMYWVRQAPGKGLECVAGISYDGSNKYYADSVKGRFTISRENSKNTLYLQMNSLISEDTAVYYCARAEWDYWGQGTLVTVSS
VL: SYELTQPSSVSVSPGQTARITCSGDVLAKKYARWFQQKPGQAPVLVIYKDSERPSGIPERFSGSSSGTTVTLTISGAQVEDEADYYCYSAADNNLGVFGGGTKL
no binding (tested: 1 μg/mL): all assays above

B2: 抗体 克隆号9A5D9 22G3 (antibody, V domains shown)
VH: EVQLVESGGGLVKPGGSLRLSCAASGFTFSSYSMNWVRQAPGKGLEWVSSISRSSSYIYYADSVMGRFTISRDNAKNSLYLQMNSLRADDTAVYYCARDRGSGNYYVDGLDIWGQGTMVTVSS
VL: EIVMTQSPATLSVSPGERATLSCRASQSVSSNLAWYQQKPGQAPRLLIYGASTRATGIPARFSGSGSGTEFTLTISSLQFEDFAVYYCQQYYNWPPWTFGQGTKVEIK
no binding (tested: 1 μg/mL): all assays above

B3: 抗体 克隆号7D7G3D4 (antibody, V domains shown)
VH: EVQLVESGGGLVQPGGSLRLSCAASGLTVSSNHMSWVRQAPGKGLEWVSIIYSGGSTYYADSVKGRFTISRDNSKNTLYLQMDSLRAEDTTVYYCARAQGGWELPGAGYYYFNGMDFWGQGTTVTVSS
VL: DIQMTQSPSSLSASVGDRVTITCRASQSISTYLNWYQQKPGKAPKLLIYAASNLQSGVPSRFSGSASGTDFTLTISSLQPEDFATYFCQQSYSTSFTFGPGTKVDIK
no binding (tested: 1 μg/mL): all assays above
